Reference: patent publication US20200384107A1

Target: CD40 (as in Table 2, species and form not stated)
Test: binding kinetics, method not stated

Kd: 10.2 nM
koff: 1.54e-05 s⁻¹
kon: 1510 M⁻¹ s⁻¹
Substance: 5D12 (anti-CD40 antibody)
